# Assay results published in article PMC10261046, “Mechanism of small molecule inhibition of Plasmodium falciparum myosin A informs antimalarial drug design” (Nature Communications, 2023).
# B1: PfMyoA (full length Plasmodium falciparum myosin A heavy chain WT with bound light chains PfELC and PfMTIP) (complex)
# chain 1: MAVTNEEIKTASKIVRRVSNVEAFDKSGSVFKGYQIWTDISPTIENDPNIMFVKCVVQQGSKKEKLTVVQIDPPGTGTPYDIDPTHAWNCNSQVDPMSFGDIGLLNHTNIPCVLDFLKHRYLKNQIYTTAVPLIVAINPYKDLGNTTNEWIRRYRDTADHTKLPPHVFTCAREALSNLHGVNKSQTIIVSGESGAGKTEATKQIMRYFASSKSGNMDLRIQTAIMAANPVLEAFGNAKTIRNNNSSRFGRFMQLVISHEGGIRYGSVVAFLLEKSRIITQDDNERSYHIFYQFLKGANSTMKSKFGLKGVTEYKLLNPNSTEVSGVDDVKDFEEVIESLKNMELSESDIEVIFSIVAGILTLGNVRLIEKQEAGLSDAAAIMDEDMGVFNKACELMYLDPELIKREILIKVTVAGGTKIEGRWNKNDAEVLKSSLCKAMYEKLFLWIIRHLNSRIEPEGGFKTFMGMLDIFGFEVFKNNSLEQLFINITNEMLQKNFVDIVFERESKLYKDEGISTAELKYTSNKEVINVLCEKGKSVLSYLEDQCLAPGGTDEKFVSSCATNLKENNKFTPAKVASNKNFIIQHTIGPIQYCAESFLLKNKDVLRGDLVEVIKDSPNPIVQQLFEGQVIEKGKIAKGSLIGSQFLNQLTSLMNLINSTEPHFIRCIKPNENKKPLEWCEPKILIQLHALSILEALVLRQLGYSYRRTFEEFLYQYKFVDIAAAEDSSVENQNKCVNILKLSGLSESMYKIGKSMVFLKQEGAKILTKIQREKLVEWENCVSVIEAAILKHKYKQKVNKNIPSLLRVQAHIRKKMVAQ
# chain 2: MASDMEEKFREAFILFSSCSDHIEMYKFFELMNSFGIILTNDEKAALPNDINMDYWLNFAKKHYNYEQPFKHINNVNEQNTNVQIKIDNFLGIMKALDTRLTESDLNILLQITNPENKSTLNLKTVSQKLTESI
# chain 3: MKQECNVCYFNLPDPESTLGPYDNELNYFTWGPGFEYEPEPQRKPLSIEESFENSEESEESVADIQQLEEKVDESDVRIYFNEKSSGGKISIDNASYNARKLGLAPSSIDEKKIKELYGDNLTYEQYLEYLSICVHDKDNVEELIKMFAHFDNNCTGYLTKSQMKNILTTWGDALTDQEAIDALNAFSSEDNIDYKLFCEDILQ
# notes: also called class XIV myosin A; M.ADP; copies: + +
# B2: PfELC (natural protein)
# light: B1 chain 2
# notes: also called essential light chain
# B3: MTIP-ΔN (PfMTIP lacking residues 1-E60) (domain or fragment)
# light: SVADIQQLEEKVDESDVRIYFNEKSSGGKISIDNASYNARKLGLAPSSIDEKKIKELYGDNLTYEQYLEYLSICVHDKDNVEELIKMFAHFDNNCTGYLTKSQMKNILTTWGDALTDQEAIDALNAFSSEDNIDYKLFCEDILQ
# notes: also called ΔN-MTIP
# How the values were obtained:
# [1] = molecular target: Skeletal muscle actin (chicken), filaments (chicken, UniProt P68139 1-377); test: count of fluorescent actin filaments on surface-immobilized myosin (modified in vitro motility assay); PfMyoA surface-immobilized; same buffer, 0% methylcellulose, 30 °C; no nucleotide (NF); with or without KNX-002; conditions: both partners purified
# [2] = molecular target: T1, Full-length PfMyoA heavy chain WT (Plasmodium falciparum, UniProt Q8IDR3 1-818); test: crystal structure; PfMyoA/ELC/MTIP-ΔN co-crystallized with or without KNX-002 and with or without ATPγS; hanging drop, 4 °C, 2.0 M ammonium sulfate, 0.1 M sodium HEPES pH 7.5, 4% PEG400; conditions: both partners purified
# T1 sequence (heavy): B1 chain 1
binder,measurement,setting,value
B1,binding result,[1],binds
B2,binding result,[2],binds
B3,binding result,[2],binds
